Measurements as given in publication PMC5562816, “Rap1 and Cdc13 have complementary roles in preventing exonucleolytic degradation of telomere 5′ ends”.

Molecular target: T1, Rap1 (Naumovozyma castellii, UniProt Q96VU6 1-826)
T1 sequence: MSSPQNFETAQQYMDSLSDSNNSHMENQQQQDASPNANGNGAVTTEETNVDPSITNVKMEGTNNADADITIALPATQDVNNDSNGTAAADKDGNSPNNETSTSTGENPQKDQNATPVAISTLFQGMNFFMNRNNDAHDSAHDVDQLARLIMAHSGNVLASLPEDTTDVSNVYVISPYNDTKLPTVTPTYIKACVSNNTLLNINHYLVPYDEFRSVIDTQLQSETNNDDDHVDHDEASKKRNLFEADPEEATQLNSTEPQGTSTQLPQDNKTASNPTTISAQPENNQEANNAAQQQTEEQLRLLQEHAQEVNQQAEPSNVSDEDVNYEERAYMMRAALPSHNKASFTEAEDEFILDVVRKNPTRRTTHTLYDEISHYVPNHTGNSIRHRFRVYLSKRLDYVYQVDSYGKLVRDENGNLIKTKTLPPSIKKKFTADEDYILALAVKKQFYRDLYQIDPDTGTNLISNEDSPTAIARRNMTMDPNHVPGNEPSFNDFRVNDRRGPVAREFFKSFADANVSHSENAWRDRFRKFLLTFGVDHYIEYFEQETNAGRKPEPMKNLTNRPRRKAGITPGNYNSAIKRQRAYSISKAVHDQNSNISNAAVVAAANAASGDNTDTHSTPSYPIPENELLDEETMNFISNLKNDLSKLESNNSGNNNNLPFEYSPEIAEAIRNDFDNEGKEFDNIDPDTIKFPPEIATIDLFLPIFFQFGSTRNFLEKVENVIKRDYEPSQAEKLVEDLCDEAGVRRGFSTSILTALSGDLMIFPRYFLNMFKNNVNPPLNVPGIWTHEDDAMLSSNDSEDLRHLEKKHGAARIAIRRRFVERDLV
Assay: EMSA; EMSA: 10 fmol probe, 1.5 ug competitor mix (E. coli DNA, salmon sperm DNA, yeast tRNA), 1x lambda-exonuclease buffer (67 mM glycine-KOH pH 9.4, 2.5 (unit not given) MgCl2, BSA 50 ug/ul as printed), 8% glycerol, 15 ul, 25 C 15 min; gel 6% in 1x TBE at 4 C
Details: protein: recombinant; tags: N-terminal 6xHis; label: 32P 3'-deoxy-ATP added to 3' end of C-strand; 3' overhang 9 nt; other end blunt

B1: D17S9m (mixed)
DNA 1: GTCACACGTCACACTCTGGGACTCTCCGTGTCTGGGTGTC
DNA 2: ACACGGAGAGTCCCAGAGTGTGACGTGTGAC
modifications: 5'-phosphate on C-strand (DEPA substrate)
Does B1 bind?
Result: no binding
